Experimental data reported in IntAct's records for PubMed 23523103.

Biological target: hsp7c_human HSPA8 (UniProt P11142)

“L-lactate dehydrogenase A chain (Homo sapiens) (from UniProt P00338) K5Q” was tested, and the “effect of a mutation on the interaction” value was “increasing interaction”.
